{
  "source": "paper PMC9405056",
  "about": "“Functional Characterization of Arylalkylamine N-Acetyltransferase, a Pivotal Gene in Antioxidant Melatonin Biosynthesis from Chlamydomonas reinhardtii” (Antioxidants, 2022)",
  "substrate": "NCCc1c[nH]c2ccc(O)cc12",
  "test": "HPLC with fluorescence detection of N-acetylserotonin; Lineweaver-Burk plot",
  "format": "biochemical, Chlamydomonas reinhardtii",
  "conditions": "acetyl-CoA as co-substrate (0.5 mM in the standard assay), 100 mM potassium phosphate, standard assay pH 8.8, 45 °C, 30 min, serotonin 50 to 2000 μM",
  "data": [
    {"protein": "CrAANAT (Chlamydomonas reinhardtii) (protein, full length, 191 residues, codon-optimized synthetic gene; N-terminal GST fusion with C-terminal His6 (GST-CrAANAT-His6, pET60), tags kept) MAEESLDASVQPLGSTVFFGPVQPEMLDRIHELEAASYPEDEAATYEKLKFRIENASNVFLVALSAEGDGEPKVVGFVCGTQTRASKLTHESMSTHDADGALLCIHSVVVDAALRRRGLATRMLRAYTAFVAATSPGLTGIRLLTKQNLIPLYEGAGFTLLGPSDVEHGADLWYECAMELEAEEEAEAAEA", "values": [
      {"measurement": "Km", "value": 247, "unit": "µM"}
    ]}
  ]
}
